Measurements reported in the supplement of paper PMC9170038.

Test system: MS2 coat protein
Experiment: apparent KD of MS2 coat protein; designed switch direction (-1 OFF switch, 1 ON switch): -1; higher = weaker reporter binding
How it was run: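 Designed RNA switches sharing common flanks were transcribed on Illumina chips by stalled E. coli RNA polymerase. They were titrated with SNAP-549-labelled MS2 coat protein, from 0.7 or 1.5 nM doubling to 3 µM, in Tris-HCl pH 7.5 buffer with KCl, MgCl2, BSA, DTT, tRNA and Tween-20. Titrations ran without input, with 200 uM small-molecule ligand, or with an oligonucleotide input. The apparent KD of each design is the median over its clusters, after curve-fitting of normalised cluster fluorescence.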

[1] = Eterna round: R95, input ligand: FMN 200 uM
[2] = Eterna round: R95, input ligand: microRNA oligo, concentration not stated
[3] = Eterna round: R95, input ligand: none
[4] = input ligand: microRNA oligo, concentration not stated

| Sequence | apparent KD of MS2 coat protein [1] [µM] | apparent KD of MS2 coat protein [2] [µM] | apparent KD of MS2 coat protein [3] [µM] | apparent KD of MS2 coat protein (input ligand: FMN 200 uM) [µM] | apparent KD of MS2 coat protein (input ligand: none) [µM] | apparent KD of MS2 coat protein [4] [µM] |
| --- | --- | --- | --- | --- | --- | --- |
| CGUAGUCUUCGGACUACGAACAUGAGGAUCACCCAUGUAAUGAGCAGAUCCUCAUGCAAGCUUUUUGCUCGUCUUAU [Sensor v3 - turn-off variant 1 - 46] (puzzle: Sensor v3, turn-off variant 1) | 0.0138 | 0.0115 | 0.0207 |  |  |  |
| CGUAGUCUUCGGACUACGAACAUGAGGAUCACCCAUGUAUAGAGCAGAUCUUCAUGCAAGCUUUUUGCUCGUCUUAU [Sensor v3 - turn-off variant 1 - 48] (puzzle: Sensor v3, turn-off variant 1) | 0.082 | 0.0108 | 0.0866 |  |  |  |
| CGUCAGUGAGGAUAUGGUAUCGUUUACAUGAGGAUCACCCAUGUUUCAUGGGACUAGAGACUAGAAGGUACUGACG [EX5 #43] (Eterna round: R97, puzzle: Exclusion 5) |  |  |  | 0.408 | 0.579 |  |
| CGUCAUCAAGUCAGGAUAUCGUCAAAUCAAUCAGGCGAGAAGGGACAUGAGGAUCACCCAUGUCGACUCAUCAC [Ex4 #3] (Eterna round: R97, puzzle: Brourd's mod of Exclusion 4) |  |  |  | 0.0249 | 0.0213 |  |
| CGUCCGGCUUCCCUUCAAGACAUGAGGAUCACCCAUGUUUUUGUUUUUGCGAGCUUUUUGCUUUUUGCUCGUCUUGU [Even Better Attempt 2] (puzzle: Sensor v3, turn-off variant 1) | 0.0203 | 0.013 | 0.0187 |  |  |  |
| CGUCCUCUAGUUAGGAUAUUGUCUCGGAUACGAAACAAGAAGGGACAUGAGGAUCACCCAUGUAAUGAGGACGA [Malc #30 mod 16] (puzzle: Brourd's mod of Exclusion 4) |  | 0.0273 |  |  |  |  |
| CGUGACUCAGGAUAUCUAUUAUGUCACAUGAGGAUCACCCAUGUCCAGCGAAAGCUGGAGGGAGAAGGGAGUCACG [Fiskers Ex 5 - 45] (puzzle: Exclusion 5) |  | 0.118 |  |  |  |  |
| CGUGAGUCAGGAUAUGCCUGUACUAACUUGAGGAUCACCCAAGUGUCCUCCCGGUGCAAUGCAGAAGGGACGACGA [Oninlein] (Eterna round: R97, puzzle: Exclusion 5) |  |  |  | 0.765 | 0.0742 |  |
| CGUGCGUAUGUGAGGAUAUGCUGGUCCUUGGAUCGGCAGAAGGUACAUGAGGAUCACCCAUGUGGUGUCGUUCU [salish99_Bmod_ex4_106] (puzzle: Brourd's mod of Exclusion 4) |  | 0.171 |  |  |  |  |
| CGUGGCUUUUACGUGAGUGGUGGGUGCAACAGGUGGGUUACAUGAGGAUCACCCAUGUGCUCACUUGCUCGUCUUUU [Grok-var2-10] (puzzle: Sensor v3, turn-off variant 2) | 0.0518 | 0.0175 | 0.0525 |  |  |  |
| CGUGUACUGCAGGAUAUCCUAGAUGCGGACAUCGGAGAAGGGCAGACAUGAGGAUCACCCAUGUGUGGCGGAGA [EX6 B.16] (Eterna round: R97, puzzle: Exclusion 6) |  |  |  | 0.221 | 0.0673 |  |
| CGUUACUACAAGCUUUGGGACAUGAGGAUCACCCAUGUUCGUCUUAUUGUAGUAGGUACGCUGACGUACCUACUACU [JL-sv1-2.10 Brourd mod] (puzzle: Sensor v3, turn-off variant 1) | 0.0156 | 0.029 | 0.0139 |  |  |  |
| CGUUGGCGAGGAUAUACAUGAGGAUCACCCAUGUGAGAGAUACUAGUGAGGUCGAUUAGUAGAAGGCGCUGACG [Mat X3R4 m1] (Eterna round: R97, puzzle: Exclusion 3) |  |  |  | 0.949 | 0.0349 |  |
| CUAAAAGUCGAGGAUAUGCACCGGCUCGCUGACGCAGAAGGCGACACAUGAGGAUCACCCAUGUCGGUACGCGA [salish99_ex6_r004_451] (Eterna round: R97, puzzle: Exclusion 6) |  |  |  | 0.0339 | 0.0183 |  |
| CUAAAUCAUGUAGGAUAUGCGUAGCAAAGCUAUGCAGAAGGACAUGAGGAUCACCCAUGUCAUUCCGUCUGGAGACAGACGGGA [Mat - Exclusion NG 1 - Mod of JL - D55] (Eterna round: R96, puzzle: Exclusion NG 1) |  |  |  | 0.186 | 0.0308 | 0.0216 |
| CUAAAUCAUGUAGGAUAUGCGUGGCAAAGCUAUGCAGAAGGACAUGAGGAUCACCCAUGUCAUUCCGUCUGAGAACAGACGGGA [Mat - Exclusion NG 1 - Mod of JL - D51] (Eterna round: R96, puzzle: Exclusion NG 1) |  |  |  | 0.172 | 0.0221 | 0.0171 |

| Sequence | apparent KD of MS2 coat protein [1] [µM] | apparent KD of MS2 coat protein [2] [µM] | apparent KD of MS2 coat protein [3] [µM] | apparent KD of MS2 coat protein (input ligand: FMN 200 uM) [µM] | apparent KD of MS2 coat protein (input ligand: none) [µM] | apparent KD of MS2 coat protein [4] [µM] |
| --- | --- | --- | --- | --- | --- | --- |
| CUAAAUCAUGUAGGAUAUGCGUGGCGAAGCUAUGCAGAAGGACAUGAGGAUCACCCAUGUCAUUCCGUCUGCGUACAGACGGGA [Mat - Exclusion NG 1 - Mod of JL - D48] (Eterna round: R96, puzzle: Exclusion NG 1) |  |  |  | 0.133 | 0.0286 | 0.021 |
| CUAACACAUGAGGAUCACCCAUGUGAGGAUAUGCGUACGUUGUCCGUAGGCGACGUGCGCAGAAGGCGCUUGGU [JL-ex1-3.20 Eli mod] (puzzle: Exclusion 1) |  | 0.0519 |  |  |  |  |
| CUACUCGUUGUGAGGAUAUCGUUUUCGUCACGGAUCGAGAAGGCACAUGAGGAUCACCCAUGUUUGAUGUGGAU [JR_BMOE4_Sub091] (Eterna round: R96, puzzle: Brourd's mod of Exclusion 4) |  |  |  | 0.089 | 0.0381 | 0.0299 |
| CUACUCGUUGUGAGGAUAUCGUUUUCGUCACGGAUCGAGAAGGCACAUGAGGAUCACCCAUGUUUGAUGUGGAU [JR_BMOE4_Sub091] (puzzle: Brourd's mod of Exclusion 4) |  | 0.0309 |  |  |  |  |
| CUACUGUGAGGAUAUGGUGAGUAGUGCCUGAGCGCUGCUCACCAGAAGGCACAUGAGGAUCACCCAUGUAUGAC [JL-ex4-2.03 denovo] (puzzle: Exclusion 4) |  | 0.0435 |  |  |  |  |
| CUAGCGAUUGUAGGAUAUCGGACUGUUUCAGUCUGAGAAGGACAUGAGGAUCACCCAUGUGAAGCAACGUGAGUUGCACGCUAG [JL ENG1 3.83] (Eterna round: R96, puzzle: Exclusion NG 1) |  |  |  | 0.0479 | 0.022 | 0.0138 |
| CUAGCGGGUGUAGGAUAUCGGACUGUUUCAGUCUGAGAAGGACAUGAGGAUCACCCAUGUAUUGCUGCGUGAGUAGCACGCUAG [JL ENG1 3.98] (Eterna round: R96, puzzle: Exclusion NG 1) |  |  |  | 0.0468 | 0.0341 | 0.0234 |
| CUAGUAUAUCAGGAUAUGAUUUUGUGUAGUUAAUCAGAAGGGAUGACAUGAGGAUCACCCAUGUUAAGGGAUGA [JR_Ex6_Sub046] (Eterna round: R97, puzzle: Exclusion 6) |  |  |  | 0.324 | 0.0833 |  |
| CUAGUCCGAGGAUAUAUUAUGUGAUACAUGAGGAUCACCCAUGUUAUAUGAUGGAUGUUAGUAGAAGGCGGACUAG [Mat - Exclusion 5 - JL mod - D81] (puzzle: Exclusion 5) | 0.0863 | 0.0966 | 0.0793 |  |  |  |
| CUAUAGUCAGGAUAUCUAAACAGGCCGAGCGUUCGCAGUCGAGAGAAGGGACAUGAGGAUCACCCAUGUCCUCC [Eternabot (L1) Solution 6] (Eterna round: R97, puzzle: Exclusion 4) |  |  |  | 0.0152 | 0.0156 |  |
| CUAUGUGAUUAGGAUAUUACUGGGCUAUCGCCUUGAGAAGGAGUUACAUGAGGAUCACCCAUGUCAACGCGACC [Eternabot (L2) Solution 44] (Eterna round: R97, puzzle: Exclusion 6) |  |  |  | 0.0178 | 0.0191 |  |
| CUAUGUGCGAGAGGAUAUCGUGUACAAAGUACACGAGAAGGCUUCACAUGAGGAUCACCCAUGUACCGAGGUGAAACACCUUGA [Omei Exc(NG)1 Bv6] (Eterna round: R96, puzzle: Exclusion NG 1) |  |  |  | 0.744 | 0.51 | 0.261 |
| CUAUUGGCAGGAUAUGCUUUUUUAGACAUGAGGAUCACCCAUGUGAUGAAUUUUGGGUUUGCAGAAGGGCCUGAGU [JR_E5_Sub038] (puzzle: Exclusion 5) |  | 0.0566 |  |  |  |  |
| CUCAAACAUGAGGAUCACCCAUGUCAGGAUAUGAUACUAUGUACUUCGGUACAUAGUAUCAGAAGGGAUAUGAA [Ex1-3: 66] (puzzle: Exclusion 1) |  | 0.0693 |  |  |  |  |
| CUCAAGUUAGGAUAUCCAAACGACACGUGCGGACGUUCAACGGAGAAGGGACUUGAGGAUCACCCAAGUUAAAA [Riusbireis] (Eterna round: R97, puzzle: Exclusion 4) |  |  |  | 0.137 | 0.045 |  |
